Experimental data reported in patent publication US20110263827A1 (AbbVie / Abbott, published 2011).
“And” between values parts separate entries of the source, which are not always exact repeats. Identical values can stand only once. Blank lines part the entries; values can stand above or below the binder they belong to.

What was measured:
Experiment in all cases: direct bind ELISA, ref Ab
HGF = molecular target: T1, HGF (UniProt P14210 32-728, limits assumed, biotinylated)
T1 construct: ELISA antigen
Protocol: (§1) Enzyme Linked Immunosorbent Assays to screen for antibodies that bind a desired target antigen are performed as follows. […] Plates are washed once with PBS containing 0.05% Tween-20. […] Plates are washed once after blocking with PBS containing 0.05% Tween-20.
(§2) Fifty microliters per well of, e.g., mouse sera, hybridoma supernatants, or antibody or DVD-Ig preparations diluted in PBS containing 0.1% Bovine Serum Albumin (BSA) (Sigma, St. Louis, Mo.) is added to the ELISA plate prepared as described above and incubated for 1 hour at room temperature. Wells are washed three times with PBS containing 0.05% Tween-20. […] Plates are washed 3 times with PBS containing 0.05% Tween-20. […] Plates are washed 3 times with PBS containing 0.05% Tween-20. Fifty microliters of TMB solution (Sigma #T0440, St. Louis, Mo.) is added to each well and incubated for 10 minutes at room temperature. The reaction is stopped by addition of 1N sulphuric acid. Plates are read spectrophotmetrically at a wavelength of 450 nm.

DLL-4 = molecular target: T2, DLL-4 (UniProt Q9NR61 27-524, limits assumed, biotinylated)
T2 construct: ELISA antigen
Protocol: as §1, §2

PLGF = molecular target: T3, PLGF (UniProt P49763-2 21-149, limits assumed, biotinylated)
T3 construct: ELISA antigen; also called P1GF
T3 sequence (looked up): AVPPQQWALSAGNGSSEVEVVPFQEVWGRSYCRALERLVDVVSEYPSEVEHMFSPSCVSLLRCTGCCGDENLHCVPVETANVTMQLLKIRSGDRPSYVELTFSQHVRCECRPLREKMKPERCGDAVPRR
Protocol: as §1, §2

VEGF = molecular target: T4, VEGF (UniProt P15692-4 27-191, limits assumed, biotinylated)
T4 construct: ELISA antigen
Protocol: as §1, §2

B1: AB012 (antibody, V domains shown)
VH: QVQLVESGGGLVKPGGSLRLSCAASGFTFSDYYMSWIRQAPGKGLEWVSYISSSGSTIYYADSVKGRFTISRDNAKNSLYLQMNSLRAEDTAVYYCARDEYNSGWYVLFDYWGQGTLVTVSS
VL: DIQMTQSPSSVSASVGDRVTITCRASQGISSWLAWYQQKPGKAPNLLIYEASSLQSGVPSRFGGSGSGTDFTLTISSLQPEDFATYYCQQANGFPWTFGQGTKVEIKR
notes: parent antibody; also called HGF
EC50 (HGF): 0.15 nM and 0.19 nM

B2: AB015 (antibody, V domains shown)
VH: EVQLVESGGGLVQPGGSLRLSCAASGFTFTDNWISWVRQAPGKGLEWVGYISPNSGFTYYADSVKGRFTISADTSKNTAYLQMNSLRAEDTAVYYCARDNFGGYFDYWGQGTLVTVSS
VL: DIQMTQSPSSLSASVGDRVTITCRASQDVSTAVAWYQQKPGKAPKLLIYSASFLYSGVPSRFSGSGSGTDFTLTISSLQPEDFATTYYCQQSYTGTVTFGQGTKVEIKR
notes: parent antibody; also called DLL-4
EC50 (DLL-4): 0.45 nM and 0.4 nM

More lines, now with the values ahead:

EC50 (PLGF): 0.21 nM and 0.25 nM
B3: AB047 (antibody, V domains shown)
VH: QVQLQQSGAELVKPGASVKISCKASGYTFTDYYINWVKLAPGQGLEWIGWIYPGSGNTKYNEKFKGKATLTIDTSSSTAYMQLSSLTSEDTAVYFCVRDSPFFDYWGQGTLLTVSS
VL: DIVLTQSPDSLAVSLGERVTMNCKSSQSLLNSGMRKSFLAWYQQKPGQSPKLLIYWASTRESGVPDRFTGSGSGTDFTLTISSVQAEDVAVYYCKQSYHLFTFGSGTKLEIKR
notes: parent antibody; also called PLGF; P1GF (ThromboGenix)

EC50 (VEGF): 1.68 nM and 1.57 nM
B4: AB071 (antibody, V domains shown)
VH: EVQLVESGGGLVQPGGSLRLSCAASGFTINASWIHWVRQAPGKGLEWVGAIYPYSGYTNYADSVKGRFTISADTSKNTAYLQMNSLRAEDTAVYYCARWGHSTSPWAMDYWGQGTLVTVSS
VL: DIQMTQSPSSLSASVGDRVTITCRASQVIRRSLAWYQQKPGKAPKLLIYAASNLASGVPSRFSGSGSGTDFTLTISSLQPEDFATYYCQQSNTSPLTFGQGTKVEIKR
notes: parent antibody
